Tests used:
Assay in all cases: cell-based or functional assay
Arg(h) = Arg(h) (human, UniProt P42684 38-1182, limits assumed)
Syk(h) = Syk(h) (human, UniProt P43405 1-635, limits assumed)
Flt4(h) = Flt4(h) (human, UniProt P35916 800-1363, limits assumed)
MSSK1(h) = MSSK1(h) (human, UniProt Q9UPE1 1-567, limits assumed)
Ab1(h) = Ab1(h) (human, UniProt P00519 27-1130, limits assumed)
PKBα(h) = PKBα(h) (human, UniProt P31749 1-480, limits assumed)
PKCε(h) = target: T1, PKCε(h) (human, UniProt Q02156 1-737)
T1 sequence (looked up): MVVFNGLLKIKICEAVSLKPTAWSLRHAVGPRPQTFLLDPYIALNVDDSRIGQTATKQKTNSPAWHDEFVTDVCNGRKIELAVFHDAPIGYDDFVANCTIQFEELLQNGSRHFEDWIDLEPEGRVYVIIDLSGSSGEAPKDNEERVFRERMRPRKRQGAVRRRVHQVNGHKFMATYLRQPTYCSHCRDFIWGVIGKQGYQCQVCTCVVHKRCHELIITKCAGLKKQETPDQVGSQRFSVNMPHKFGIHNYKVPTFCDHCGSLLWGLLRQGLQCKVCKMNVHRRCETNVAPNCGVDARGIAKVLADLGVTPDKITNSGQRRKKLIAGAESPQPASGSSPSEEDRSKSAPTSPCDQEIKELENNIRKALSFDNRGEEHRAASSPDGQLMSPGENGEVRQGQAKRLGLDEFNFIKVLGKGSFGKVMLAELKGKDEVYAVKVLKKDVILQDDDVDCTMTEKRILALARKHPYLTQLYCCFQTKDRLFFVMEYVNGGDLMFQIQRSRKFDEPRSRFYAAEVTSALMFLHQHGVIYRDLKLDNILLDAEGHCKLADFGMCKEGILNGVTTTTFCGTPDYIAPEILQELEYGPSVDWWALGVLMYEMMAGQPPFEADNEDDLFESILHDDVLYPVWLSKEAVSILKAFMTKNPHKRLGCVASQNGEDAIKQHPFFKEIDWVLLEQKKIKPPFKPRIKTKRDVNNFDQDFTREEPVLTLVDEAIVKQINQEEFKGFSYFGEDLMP

Rsk2(h) = Rsk2(h) (human, UniProt P51812 1-740, limits assumed)
Rsk2(h), sequence (P51812 whole entry): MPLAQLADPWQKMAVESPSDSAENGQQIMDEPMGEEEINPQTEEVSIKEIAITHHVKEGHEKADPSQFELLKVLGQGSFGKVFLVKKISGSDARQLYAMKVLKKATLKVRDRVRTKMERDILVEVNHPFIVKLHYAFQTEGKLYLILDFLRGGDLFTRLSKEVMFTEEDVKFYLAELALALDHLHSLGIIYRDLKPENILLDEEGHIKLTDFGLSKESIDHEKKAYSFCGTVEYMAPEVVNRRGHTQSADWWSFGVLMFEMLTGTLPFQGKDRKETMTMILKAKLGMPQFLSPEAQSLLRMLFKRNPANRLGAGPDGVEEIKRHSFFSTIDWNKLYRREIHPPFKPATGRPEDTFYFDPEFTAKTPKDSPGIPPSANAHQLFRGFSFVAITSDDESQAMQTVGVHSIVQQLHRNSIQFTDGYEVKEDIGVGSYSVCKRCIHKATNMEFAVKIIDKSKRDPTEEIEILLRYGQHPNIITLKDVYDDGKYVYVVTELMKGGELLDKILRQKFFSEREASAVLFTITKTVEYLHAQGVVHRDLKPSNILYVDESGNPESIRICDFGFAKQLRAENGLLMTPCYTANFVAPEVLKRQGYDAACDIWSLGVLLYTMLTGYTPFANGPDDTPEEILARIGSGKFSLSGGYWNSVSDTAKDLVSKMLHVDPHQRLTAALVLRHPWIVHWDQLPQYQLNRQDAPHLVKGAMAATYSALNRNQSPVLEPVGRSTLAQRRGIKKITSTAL

DMPK(h) = target: T2, DMPK(h) (human, UniProt Q09013 1-629, limits assumed)
T2 sequence (looked up): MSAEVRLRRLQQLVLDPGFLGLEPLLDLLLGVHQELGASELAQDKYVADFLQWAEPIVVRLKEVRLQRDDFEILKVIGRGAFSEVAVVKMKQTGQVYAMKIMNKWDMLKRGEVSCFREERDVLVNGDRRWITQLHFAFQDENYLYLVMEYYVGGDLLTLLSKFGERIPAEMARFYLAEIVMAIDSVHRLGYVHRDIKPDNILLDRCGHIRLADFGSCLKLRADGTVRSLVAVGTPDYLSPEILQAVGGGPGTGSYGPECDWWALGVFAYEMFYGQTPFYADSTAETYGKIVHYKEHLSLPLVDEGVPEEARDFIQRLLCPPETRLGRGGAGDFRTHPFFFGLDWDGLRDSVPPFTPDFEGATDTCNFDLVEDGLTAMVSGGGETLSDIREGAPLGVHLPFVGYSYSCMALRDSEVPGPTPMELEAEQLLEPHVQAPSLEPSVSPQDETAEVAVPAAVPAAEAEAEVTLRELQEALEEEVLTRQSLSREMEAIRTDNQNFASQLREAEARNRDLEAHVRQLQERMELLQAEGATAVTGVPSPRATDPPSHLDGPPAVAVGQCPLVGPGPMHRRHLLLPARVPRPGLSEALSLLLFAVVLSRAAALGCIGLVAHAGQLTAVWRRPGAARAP

GSK3β(h) = GSK3β(h) (human, UniProt P49841 1-420)
GSK3β(h), sequence (P49841 whole entry): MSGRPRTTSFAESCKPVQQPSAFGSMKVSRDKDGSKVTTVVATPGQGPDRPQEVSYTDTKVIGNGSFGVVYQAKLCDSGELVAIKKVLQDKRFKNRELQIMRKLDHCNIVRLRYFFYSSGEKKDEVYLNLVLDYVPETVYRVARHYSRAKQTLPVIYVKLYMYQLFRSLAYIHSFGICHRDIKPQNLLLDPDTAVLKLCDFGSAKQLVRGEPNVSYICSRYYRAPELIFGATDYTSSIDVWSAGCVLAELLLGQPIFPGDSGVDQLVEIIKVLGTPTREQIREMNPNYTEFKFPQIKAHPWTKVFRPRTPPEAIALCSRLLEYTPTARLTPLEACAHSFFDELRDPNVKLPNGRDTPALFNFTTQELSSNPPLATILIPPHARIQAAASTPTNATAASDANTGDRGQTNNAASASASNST

IGF-1R(h), activated = IGF-1R(h), activated (human, UniProt P08069 959-1367, limits assumed)
IGF-1R(h), activated, sequence (P08069 959-1367 limits assumed): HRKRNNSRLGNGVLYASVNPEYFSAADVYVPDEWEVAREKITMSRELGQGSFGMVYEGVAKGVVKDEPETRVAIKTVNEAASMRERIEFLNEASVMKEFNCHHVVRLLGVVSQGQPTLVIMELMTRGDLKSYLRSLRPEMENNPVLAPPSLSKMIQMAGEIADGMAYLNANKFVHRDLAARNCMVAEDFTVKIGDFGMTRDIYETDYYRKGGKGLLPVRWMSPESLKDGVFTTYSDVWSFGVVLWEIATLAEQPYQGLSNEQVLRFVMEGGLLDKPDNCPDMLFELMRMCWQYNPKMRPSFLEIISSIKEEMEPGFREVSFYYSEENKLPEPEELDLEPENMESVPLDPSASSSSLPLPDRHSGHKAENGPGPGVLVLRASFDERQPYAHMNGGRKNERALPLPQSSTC

PDGFRβ(h) = PDGFRβ(h) (human, UniProt P09619 557-1106, limits assumed)
SAPK2a(T106M)(h) = SAPK2a(T106M)(h) (human, UniProt Q16539 1-360)
Aurora-A(h) = target: T3, Aurora-A(h) (human, UniProt O14965 1-403)
T3 sequence (looked up): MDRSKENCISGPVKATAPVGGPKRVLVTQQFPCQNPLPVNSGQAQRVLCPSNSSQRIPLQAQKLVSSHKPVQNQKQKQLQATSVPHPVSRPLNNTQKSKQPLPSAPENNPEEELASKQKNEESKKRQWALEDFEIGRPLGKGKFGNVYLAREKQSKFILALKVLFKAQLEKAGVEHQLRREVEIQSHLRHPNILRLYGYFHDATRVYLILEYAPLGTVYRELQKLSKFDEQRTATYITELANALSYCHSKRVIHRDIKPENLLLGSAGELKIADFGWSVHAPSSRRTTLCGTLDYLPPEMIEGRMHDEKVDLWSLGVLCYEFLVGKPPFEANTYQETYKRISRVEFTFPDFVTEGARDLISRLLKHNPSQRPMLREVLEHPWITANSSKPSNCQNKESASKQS

MINK(h) = MINK(h) (human, UniProt Q8N4C8 1-320, limits assumed)
MINK(h), sequence (Q8N4C8 1-320 limits assumed): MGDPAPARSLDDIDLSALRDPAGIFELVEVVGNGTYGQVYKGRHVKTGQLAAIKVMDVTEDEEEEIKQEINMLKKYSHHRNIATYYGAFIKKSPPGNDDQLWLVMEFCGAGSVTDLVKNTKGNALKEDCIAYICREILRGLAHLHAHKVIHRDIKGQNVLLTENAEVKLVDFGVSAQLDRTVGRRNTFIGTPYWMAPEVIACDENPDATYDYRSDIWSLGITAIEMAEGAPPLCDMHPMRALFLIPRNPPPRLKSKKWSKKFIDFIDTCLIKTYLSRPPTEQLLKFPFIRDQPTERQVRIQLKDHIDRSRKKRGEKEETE

p70S6K(h) = p70S6K(h) (human, UniProt P23443 1-421, limits assumed)
p70S6K(h), sequence (P23443 1-421 limits assumed): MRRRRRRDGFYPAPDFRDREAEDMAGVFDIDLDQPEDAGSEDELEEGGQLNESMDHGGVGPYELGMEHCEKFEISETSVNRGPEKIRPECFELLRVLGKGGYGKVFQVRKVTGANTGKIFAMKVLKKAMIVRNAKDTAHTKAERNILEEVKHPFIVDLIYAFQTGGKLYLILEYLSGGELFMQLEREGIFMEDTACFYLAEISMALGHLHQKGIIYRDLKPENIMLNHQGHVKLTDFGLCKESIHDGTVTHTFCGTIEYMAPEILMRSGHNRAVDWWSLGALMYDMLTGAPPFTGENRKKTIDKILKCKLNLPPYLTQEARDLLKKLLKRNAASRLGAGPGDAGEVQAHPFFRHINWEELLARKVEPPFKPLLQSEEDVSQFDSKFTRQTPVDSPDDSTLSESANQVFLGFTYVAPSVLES

Met(Y1248C)(h) = Met(Y1248C)(h) (human, UniProt P08581-2 974-1408, limits assumed)
Ros(h) = Ros(h) (human, UniProt P08922 1883-2347, limits assumed)
Ros(h), sequence (P08922 1883-2347 limits assumed): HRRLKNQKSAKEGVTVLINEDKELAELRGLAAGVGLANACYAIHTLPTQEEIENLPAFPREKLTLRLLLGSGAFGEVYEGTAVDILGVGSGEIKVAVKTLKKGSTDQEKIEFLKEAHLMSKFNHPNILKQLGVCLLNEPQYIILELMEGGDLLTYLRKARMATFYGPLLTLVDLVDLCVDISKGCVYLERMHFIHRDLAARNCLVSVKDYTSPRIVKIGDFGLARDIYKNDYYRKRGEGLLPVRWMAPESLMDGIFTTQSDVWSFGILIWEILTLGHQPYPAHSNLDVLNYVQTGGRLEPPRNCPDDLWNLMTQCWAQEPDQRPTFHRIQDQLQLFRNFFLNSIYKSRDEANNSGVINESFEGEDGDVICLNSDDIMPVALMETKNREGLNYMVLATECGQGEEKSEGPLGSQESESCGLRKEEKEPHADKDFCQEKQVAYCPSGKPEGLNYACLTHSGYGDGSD

MSSK1(h), sequence (Q9UPE1 whole entry): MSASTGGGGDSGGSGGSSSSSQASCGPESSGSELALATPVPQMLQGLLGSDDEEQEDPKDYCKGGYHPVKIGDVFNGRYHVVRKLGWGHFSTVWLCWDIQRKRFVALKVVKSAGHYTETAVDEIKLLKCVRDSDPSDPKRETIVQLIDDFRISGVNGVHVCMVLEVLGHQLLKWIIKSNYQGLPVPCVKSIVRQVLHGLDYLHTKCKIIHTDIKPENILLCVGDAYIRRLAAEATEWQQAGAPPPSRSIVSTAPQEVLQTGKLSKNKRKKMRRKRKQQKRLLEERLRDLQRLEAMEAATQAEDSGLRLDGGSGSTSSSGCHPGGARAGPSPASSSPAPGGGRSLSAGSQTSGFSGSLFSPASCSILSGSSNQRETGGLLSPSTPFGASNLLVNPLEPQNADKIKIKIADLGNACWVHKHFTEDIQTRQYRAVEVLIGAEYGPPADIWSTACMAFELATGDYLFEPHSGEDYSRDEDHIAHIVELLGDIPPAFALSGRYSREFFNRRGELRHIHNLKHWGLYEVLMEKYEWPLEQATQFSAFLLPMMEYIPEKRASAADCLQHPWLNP
PKBα(h), sequence (P31749 whole entry): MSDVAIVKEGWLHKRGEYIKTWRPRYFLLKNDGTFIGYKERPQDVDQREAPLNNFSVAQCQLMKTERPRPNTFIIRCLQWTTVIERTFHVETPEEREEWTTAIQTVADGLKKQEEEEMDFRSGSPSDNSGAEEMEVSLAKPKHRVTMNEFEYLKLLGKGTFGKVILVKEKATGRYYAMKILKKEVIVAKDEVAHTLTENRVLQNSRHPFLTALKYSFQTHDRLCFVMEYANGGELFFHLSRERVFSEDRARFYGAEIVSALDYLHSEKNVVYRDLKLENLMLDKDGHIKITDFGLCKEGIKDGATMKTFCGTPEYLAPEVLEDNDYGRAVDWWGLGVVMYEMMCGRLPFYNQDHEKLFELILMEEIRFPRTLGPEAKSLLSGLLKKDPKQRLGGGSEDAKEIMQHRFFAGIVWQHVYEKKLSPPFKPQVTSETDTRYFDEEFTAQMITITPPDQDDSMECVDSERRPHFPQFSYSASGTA
Ab1(h), sequence (P00519 27-1130 limits assumed): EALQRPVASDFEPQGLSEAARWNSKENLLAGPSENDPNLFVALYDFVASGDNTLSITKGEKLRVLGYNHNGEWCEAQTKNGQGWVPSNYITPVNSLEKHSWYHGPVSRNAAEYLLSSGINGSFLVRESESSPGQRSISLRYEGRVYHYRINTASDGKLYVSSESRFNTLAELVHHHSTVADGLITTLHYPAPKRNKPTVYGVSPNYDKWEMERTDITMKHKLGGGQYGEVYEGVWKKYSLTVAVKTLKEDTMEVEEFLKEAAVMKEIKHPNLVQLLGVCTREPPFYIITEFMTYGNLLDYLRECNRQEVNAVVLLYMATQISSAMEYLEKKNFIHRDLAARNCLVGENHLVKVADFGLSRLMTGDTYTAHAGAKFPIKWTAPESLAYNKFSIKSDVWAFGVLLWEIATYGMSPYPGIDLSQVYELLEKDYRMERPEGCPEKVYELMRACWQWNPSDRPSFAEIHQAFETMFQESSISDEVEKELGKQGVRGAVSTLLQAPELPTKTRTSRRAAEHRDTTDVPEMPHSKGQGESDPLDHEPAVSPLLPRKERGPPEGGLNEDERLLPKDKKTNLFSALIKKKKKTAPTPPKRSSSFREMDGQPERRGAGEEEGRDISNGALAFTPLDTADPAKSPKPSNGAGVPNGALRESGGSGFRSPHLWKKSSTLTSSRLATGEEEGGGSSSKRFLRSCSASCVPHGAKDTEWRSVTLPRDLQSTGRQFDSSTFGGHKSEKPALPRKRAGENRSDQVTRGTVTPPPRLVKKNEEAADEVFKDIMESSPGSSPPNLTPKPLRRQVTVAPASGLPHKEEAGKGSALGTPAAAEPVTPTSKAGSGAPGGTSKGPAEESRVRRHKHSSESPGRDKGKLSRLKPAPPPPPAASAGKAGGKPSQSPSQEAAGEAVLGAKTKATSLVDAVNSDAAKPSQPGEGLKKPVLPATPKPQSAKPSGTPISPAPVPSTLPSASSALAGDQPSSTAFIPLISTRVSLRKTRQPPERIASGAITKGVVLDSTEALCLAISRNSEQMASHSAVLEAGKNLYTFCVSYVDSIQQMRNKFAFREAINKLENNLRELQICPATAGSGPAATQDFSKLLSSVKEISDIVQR

FAKLAARLYRKALARQLGVAA [MMI-0300]
% activity (Arg(h)): 72% | % activity (Syk(h)): 24% | % activity (Flt4(h)): 83% | % activity (MSSK1(h)): 77% | % activity (Ab1(h)): 69% | % activity (PKBα(h)): 57% | % activity (PKCε(h)): 79% | % activity (Rsk2(h)): 51% | % activity (DMPK(h)): 59% | % activity (GSK3β(h)): 205% | % activity (IGF-1R(h), activated): 80% | % activity (PDGFRβ(h)): 81% | % activity (SAPK2a(T106M)(h)): 97% | % activity (Aurora-A(h)): 92% | % activity (MINK(h)): 48% | % activity (p70S6K(h)): 35% | % activity (Met(Y1248C)(h)): 84% | % activity (Ros(h)): 95%

KAFAKLAARLYRKALARQLGVAA [MMI-0400]
% activity (Arg(h)): 84% | % activity (Syk(h)): 9% | % activity (Flt4(h)): 89% | % activity (MSSK1(h)): 75% | % activity (Ab1(h)): 84% | % activity (PKBα(h)): 67% | % activity (PKCε(h)): 59% | % activity (Rsk2(h)): 38% | % activity (DMPK(h)): 54% | % activity (GSK3β(h)): 202% | % activity (IGF-1R(h), activated): 77% | % activity (PDGFRβ(h)): 53% | % activity (SAPK2a(T106M)(h)): 99% | % activity (Aurora-A(h)): 119% | % activity (MINK(h)): 52% | % activity (p70S6K(h)): 33% | % activity (Met(Y1248C)(h)): 36% | % activity (Ros(h)): 99%

Reference: patent US20160200782A1 (MOERAE MATRIX, published 2016)
